Consider four molecules from article PMC9735246 (Cell, 2022).

Experiment [1] has as its target T1, Human β-tubulin (TBB5) (human, UniProt P07437 1-444). Description: cross-linking.
Experiment [2] deals with T2, Human α-tubulin (TUBA1B) (human, UniProt P68363 1-451). Description: cross-linking.
In experiment [3] the target is T1, Human β-tubulin (TBB5). Description: native gel or EMSA. In general terms: Mobility shift assays separate free from complexed probe on a gel.
In experiment [4] the target is T2, Human α-tubulin (TUBA1B). Description: native gel or EMSA.

T2 sequence (P68363 whole entry): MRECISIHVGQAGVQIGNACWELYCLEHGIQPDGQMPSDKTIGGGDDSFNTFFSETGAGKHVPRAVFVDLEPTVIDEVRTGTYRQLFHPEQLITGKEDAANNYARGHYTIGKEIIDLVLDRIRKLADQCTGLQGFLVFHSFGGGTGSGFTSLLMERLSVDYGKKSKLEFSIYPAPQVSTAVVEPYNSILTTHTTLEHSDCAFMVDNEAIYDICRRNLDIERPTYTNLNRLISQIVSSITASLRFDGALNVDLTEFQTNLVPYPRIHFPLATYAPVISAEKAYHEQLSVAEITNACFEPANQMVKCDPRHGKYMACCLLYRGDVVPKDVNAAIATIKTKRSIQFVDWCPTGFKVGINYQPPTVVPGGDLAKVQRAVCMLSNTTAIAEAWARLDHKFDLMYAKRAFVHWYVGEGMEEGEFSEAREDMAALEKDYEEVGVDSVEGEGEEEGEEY
T1 sequence (P07437 whole entry): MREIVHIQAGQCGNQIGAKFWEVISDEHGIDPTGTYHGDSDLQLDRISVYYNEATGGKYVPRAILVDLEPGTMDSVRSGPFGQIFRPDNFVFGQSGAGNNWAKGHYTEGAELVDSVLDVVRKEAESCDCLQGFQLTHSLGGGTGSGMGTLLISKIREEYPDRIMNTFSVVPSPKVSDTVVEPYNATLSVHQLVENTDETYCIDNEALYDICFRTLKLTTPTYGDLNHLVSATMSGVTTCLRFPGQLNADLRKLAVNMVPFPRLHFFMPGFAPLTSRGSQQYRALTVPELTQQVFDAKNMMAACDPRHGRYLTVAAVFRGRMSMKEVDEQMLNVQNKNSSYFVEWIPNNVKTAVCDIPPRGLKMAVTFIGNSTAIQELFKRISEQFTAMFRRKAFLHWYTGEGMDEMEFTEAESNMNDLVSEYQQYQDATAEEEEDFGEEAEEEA

B1: PFD3, subunit of human Prefoldin (natural protein)
chain: MAAVKDSCGKGEMATGNGRRLHLGIPEAVFVEDVDSFMKQPGNETADTVLKKLDEQYQKYKFMELNLAQKKRRLKGQIPEIKQTLEILKYMQKKKESTNSMETRFLLADNLYCKASVPPTDKVCLWLGANVMLEYDIDEAQALLEKNLSTATKNLDSLEEDLDFLRDQFTTTEVNMARVYNWDVKRRNKDDSTKNKA
As for B1, the binding result with Human β-tubulin (TBB5) [1] and with Human α-tubulin (TUBA1B) [2] was “binds” in each case.

B2: TBCA (natural protein, UniProt O75347 1-108, looked up)
chain: MADPRVRQIKIKTGVVKRLVKEKVMYEKEAKQQEEKIEKMRAEDGENYDIKKQAEILQESRMMIPDCQRRLEAAYLDLQRILENEKDLEEAEEYKEARLVLDSVKLEA
For the molecule B2, in the experiment with Human β-tubulin (TBB5) [3], the binding result is “binds”.

B3: PFD1, subunit of human Prefoldin (natural protein)
chain: MAAPVDLELKKAFTELQAKVIDTQQKVKLADIQIEQLNRTKKHAHLTDTEIMTLVDETNMYEGVGRMFILQSKEAIHSQLLEKQKIAEEKIKELEQKKSYLERSVKEAEDNIREMLMARRAQ
Take B3: the binding result with Human β-tubulin (TBB5) [1] and with Human α-tubulin (TUBA1B) [2] was “binds” each time.

B4: TBCB (natural protein, UniProt Q99426 1-244, looked up)
chain: MEVTGVSAPTVTVFISSSLNTFRSEKRYSRSLTIAEFKCKLELLVGSPASCMELELYGVDDKFYSKLDQEDALLGSYPVDDGCRIHVIDHSGARLGEYEDVSRVEKYTISQEAYDQRQDTVRSFLKRSKLGRYNEEERAQQEAEAAQRLAEEKAQASSIPVGSRCEVRAAGQSPRRGTVMYVGLTDFKPGYWIGVRYDEPLGKNDGSVNGKRYFECQAKYGAFVKPAVVTVGDFPEEDYGLDEI
Consider B4, for which, in the experiment with Human α-tubulin (TUBA1B) [4], the binding result is reported as “binds”.
